Results reported in paper PMC11189471.

Columns and labels:
[1] = biological target: HpARI2-LD (full-length HpARI2 with residues 180-188 of the CCP3 loop deleted) (Heligmosomoides polygyrus bakeri); experiment: SPR; screening of HpARI2 variants for mIL-33 binding at one concentration (legend: HpARI2 concentration of 100 nM); same reagents and equipment as the kinetic SPR; n = 3
[2] = biological target: HpARI2-LD (full-length HpARI2 with residues 180-188 of the CCP3 loop deleted) (Heligmosomoides polygyrus bakeri); experiment: SPR; biotinylated HpARI2 variant (300-400 RU) captured with the Biotin CAPture kit; two-fold series of IL-33 flowed at 40 µl/min; 25 °C; 20 mM Tris-Cl pH 8.0, 150 mM NaCl, 1 mM EDTA, 0.02% Tween-20, 1 mg/ml salmon sperm DNA; Langmuir fit
[3] = biological target: HpARI2_CCP1/2 (HpARI2 lacking CCP3) (Heligmosomoides polygyrus bakeri); experiment: as above
[4] = biological target: HpARI2_CCP2/3 (HpARI2 lacking CCP1) (Heligmosomoides polygyrus bakeri); experiment: as above
[5] = biological target: full-length HpARI2 (Alarmin Release Inhibitor, Heligmosomoides polygyrus bakeri) (Heligmosomoides polygyrus bakeri); experiment: as above
[6] = biological target: full-length HpARI2 (Alarmin Release Inhibitor, Heligmosomoides polygyrus bakeri) (Heligmosomoides polygyrus bakeri); experiment: SPR; 400-450 RU biotinylated HpARI2 captured on the chip; two-fold series (1000 nM to 15.62 nM) of hIL-33 or hIL-33:S158R flowed
[7] = biological target: mouse IL-33 (residues 112-270) (mouse)
[8] = biological target: mouse IL-33 (residues 112-270) (mouse); experiment: SPR; 1000-1200 RU ST2-Fc captured on a protein A/G-coated CM5 chip; mIL-33 (2 µM) alone or mixed with 2.5 µM HpARI2, HpARI2_CCP2/3 or HpARI2-LD flowed; 20 mM Tris-Cl pH 8.0, 150 mM NaCl, 1 mg/ml salmon sperm DNA, 0.02% Tween-20
[9] = biological target: HpARI2_CCP2/3 (Heligmosomoides polygyrus bakeri); experiment: SPR; biotinylated HpARI2 variant (300-400 RU) captured on a Biotin CAPture chip, two-fold series of mIL-33 (or mIL-33 R159A) injected; Biacore T200, 25 °C, 20 mM Tris-Cl pH 8.0, 150 mM NaCl, 1 mM EDTA, 0.02% Tween-20, 1 mg/ml salmon sperm DNA; Langmuir 1:1 fit

## mouse IL-33 (residues 112-270) (ligand)
[1]
  percent reduction of mIL-33 binding against HpARI2: 60%
[2]
  Kd: 45 nM
[3]
  Kd: 49 nM
  fold koff against full-length HpARI2: > 100 fold
[4]
  Kd: 4 nM
[5]
  Kd: 0.048 nM

## human IL-33 (from UniProt O95760 1-270) (ligand)
[6]
  Kd: 65 nM

## HpARI2-LD (full-length HpARI2 with residues 180-188 of the CCP3 loop deleted) (natural protein)
[7]
  protein concentration needed for the same inhibition of IL-5 and IL-13 release as wild-type HpARI2 (bone marrow-derived ILC2s): 100 fold
[8]
  percent reduction of mIL-33 binding to ST2-Fc at 2.5 µM HpARI2-LD: 25%

## mouse IL-33 R159A (ligand)
[9]
  Kd: 3800 nM

## mouse IL-33 R159A mutant (ligand)
[4]
  fold reduction in binding affinity against wild-type mIL-33: 1000 fold

## human IL-33 S158R mutant (from UniProt O95760) (ligand)
[6]
  fold increase of HpARI2 binding against human IL-33: > 100 fold
